Experimental data reported in the supplement of paper PMC11908140.

B1: library; numbered along this chain (parent)
chain: MRKPRAAVGSGHRKQAASQEGRQKHAKNNSQAKPSACDGLARQPEEVVLQASVSSYHLFRDVAEVTAFRGSLLSWYDQEKRDLPWRRRAEDEMDLDRRAYAVWVSEVMLQQTQVATVINYYTGWMQKWPTLQDLASASLEEVNQLWAGLGYYSRGRRLQEGARKVVEELGGHMPRTAETLQQLLPGVGRYTAGAIASIAFGQATGVVDGNVARVLCRVRAIGADPSSTLVSQQLWGLAQQLVDPARPGDFNQAAMELGATVCTPQRPLCSQCPVESLCRARQRVEQEQLLASGSLSGSPDVEECAPNTGQCHLCLPPSEPWDQTLGVVNFPRKASRKPPREESSATCVLEQPGALGAQILLVQRPNSGLLAGLWEFPSVTWEPSEQLQRKALLQELQRWAGPLPATHLRHLGEVVHTFSHIKLTYQVYGLALEGQTPVTTVPPGARWLTQEEFHTAAVSTAMKKVFRVYQGQQPGTCMGSKRSQVSSPCSRKKPRMGQQVLDNFFRSHISTDAHSLNSAAQ

Variants of: B1
Experiment: 8OG:A repair function score (normalized; synonymous = 0, nonsense = -1) (normalized log-likelihood score); higher = more repair activity (WT-like)
Settings: with 8OG:A DNA repair reporter (GFP) in HEK-293 MUTYH KO cells
In short: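 After 72 h, viable mCherry+ cells were split into GFP+ (repair) and GFP− bins in three replicates per tile. These cells were MUTYH knockout HEK-293 cells holding lentiviral MUTYH cDNA NNN codon-scan libraries, kept in 10 pg/ml doxycycline and co-transfected with mCherry plus an 8OG:A GFP repair reporter. Sequencing of tile amplicons gave per-tile Rosace fitness scores, normalized into a repair function score anchored on synonymous and nonsense distributions. Synonymous medians were fixed at 0, nonsense at -1, and variants under 300 counts per million at the start were removed.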
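Note: cells sorted at 72 h after reporter transfection.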

Variant	8OG:A repair function score
Q450Y	0.286
L392M	-0.171
A519I	-0.0243
P365Y	-0.212
A400L	-0.241
H410N	-0.157
A461S	-0.119
R495N	-0.129
I421M	-0.139
T417Y	0.325
R482Q	0.0234
Y100T	-1.56
A203W	-0.183
G475Y	-0.00721
L49N	0.241
Q358K	0.0561
T122R	-0.0157
E302K	-0.367
H454C	0.0357
G205H	-0.8
F505H	-0.0303
K422S	-0.227
A345S	-0.148
E303W	-0.175

Variant	8OG:A repair function score
V62S	0.00493
A391W	-0.428
L325C	-0.0972
P338D	-0.0378
L58G	0.00575
Q470P	-0.426
G193P	-0.524
L169R	-0.105
Q113T	0.157
F68E	-1.5
N307L	-0.079
D512A	-0.0123
Q358F	-0.316
A245Y	-0.107
C269S	-1.28
P174F	-0.961
E342I	-0.00523
W124F	0.00143
D61V	-0.137
A196F	-0.939
Q232S	-0.0424
R213D	-1.01
A334F	-0.0391
D249C	-0.396

Variant	8OG:A repair function score
Q426I	-0.057
H454Y	-0.087
Y152N	-0.779
L149H	-1.82
C216Y	-0.886
G258I	-1.02
L134E	-0.848
C216P	-0.98
L361W	-0.755
H57G	-0.607
G209F	-0.839
R336F	-0.164
C269A	-1.29
R482T	-0.0344
A177Q	-0.125
A101M	-0.0323
L387N	-0.167
Y56D	-0.0985
S276V	-0.0409
L295F	-0.0139
R98L	-0.107
E350T	0.0414
E256R	-0.814
R446T	-0.232

Variant	8OG:A repair function score
L516H	0.0157
W381R	-0.0405
E303G	-0.0952
L58F	0.00426
R42I	-0.00552
V465Q	-1.17
I198M	-0.189
E287C	-0.037
V500M	0.0185
C311R	-0.481
S298R	-0.0386
E385D	0.0907
H416I	-0.188
G209W	-0.876
V117R	-1.16
G372F	-0.294
L289I	0.00652
H312D	-0.0268
R60K	-0.0179
S518Q	-0.0542
N329I	-0.365
P488F	-0.042
V214L	-0.0688
A445V	-0.109

Variant	8OG:A repair function score
T436D	0.113
G372P	-0.669
H57Q	-0.657
T191Q	-0.768
F418W	-0.969
W85M	-0.682
F504P	-0.0247
V48C	0.0424
L516I	0.0106
L184G	-0.899
W381D	-0.141
Y152K	-1.07
S343M	0.0865
F200D	-0.891
E341V	-0.0649
A63L	-0.00968
V301A	-0.249
L396N	-0.969
T122K	-0.158
A457K	-0.815
D322W	-0.0845
A147T	-0.154
G471L	-0.0292
S487F	-0.00307

Variant	8OG:A repair function score
E302N	-0.316
P339L	-0.113
F466P	-1.3
Q233R	-0.19
L430K	-0.617
V207K	-0.909
A196M	-0.507
L241T	-0.51
E140I	-0.242
E140W	-0.595
S136A	0.0607
Q310I	0.0174
L58N	0.00327
V53T	-0.0126
P244L	-0.398
F504K	-0.0046
L73S	-0.594
F330G	-0.999
Q351S	-0.0771
Q181L	-0.0425
C272N	-1.21
A63G	-0.0575
G161K	-1.07
F505N	0.0264

Variant	8OG:A repair function score
S136G	0.03
T406K	0.103
H172L	-0.0966
C477W	0.00839
Q78C	-0.996
E385H	-0.135
S335N	0.0783
Y56E	-0.0123
A36N	-0.0203
W381V	0.0132
L257I	-0.176
L237A	-0.321
L180V	-0.497
V207R	-0.947
A461F	-0.265
Q232D	-0.0919
G309V	-0.0173
Y152I	-0.496
W374G	-0.847
R163G	-0.378
N210E	-0.997
S105M	-0.981
Q181S	-0.0472
